We go through one protein from PMC3832651, “Characterization of Neutral Lipase BT-1 Isolated from the Labial Gland of Bombus terrestris Males” (PLoS ONE, 2013).

Substrate in the series: CCCCCCCCCCCC(=O)Oc1ccc([N+](=O)[O-])cc1
Briefly: purified protein. As to conditions: 50 mM Tris/HCl, pH 8.2, 25°C, p-NPL 0.05-0.4 mM added in 2-propanol. Format: biochemical, Bombus terrestris.

B1: lipase BT-1 (Bombus terrestris) (protein)
chain: VICDVEDTLHVSRKIRLKIYKGNSSYFSSTESMVMNPGNIADDILPDRDSILYIHGFLENTEAENVRVIIRAYLDKGDVNVIVLDWGEIAFNINYVYVSSQVVTIAKAVAESLKKLVDLIDLDTLHVIGHSLGAHIAGNIGRYANINLSRITGLDPALPLFYPSTCHVRSTDAEAVVILHTDGGFYGTATNTGTIDFYVNGGSSVQPGCPIIFGGEFCSHQRSTRIYAESLLNPKAFPAHKCLNEIADTEEVYFGDSTPKDIYGTYCFNTNAKPPYGKTI
notes: native, purified from labial gland (cephalic part) of 2- to 3-day-old males on octyl-agarose, Triton X-100 desorption; ~30 kDa on SDS-PAGE; identified by MS (18 peptides); catalytic triad Ser155, Asp179, His244
On to B1, for which the Km – broadly, the substrate concentration at which the rate is half of its maximum – was determined as 1.1 ± 0.3 µM and the Vmax (commonly the rate approached at saturating substrate) was found to be 0.15 µmol/min/mg.
